Measured values taken from article PMC1868598.

Assay: confocal colocalisation with GFP-Rab4, transfected HeLa/COS-1
Conditions: glycan lost; control: wild type

Protein | localisation_or_trafficking
human ClC-6 (hClC-6a): AAAA-hClC-6 (protein) parent chain: MAGCRGSLCCCCRWCCCCGERETRTPEELTILGETQEEEDEILPRKDYESLDYDRCINDPYLEVLETMDNKKGRRYEAVKWMVVFAIGVCTGLVGLFVDFFVRLFTQLKFGVVQTSVEECSQKGCLALSLLELLGFNLTFVFLASLLVLIEPVAAGSGIPEVKCYLNGVKVPGIVRLRTLLCKVLGVLFSVAGGLFVEKEGPMIHSGSVVGAGLPQFQSISLRKIQFNFPYFRSDRDKRDFVSAGAAAGVAAAFGAPIGGTLFSLEEGSSFWNQGLTWKVLFCSMSATFTLNFFRSGIQFGSWGSFQLPGLLNFGEFKCSDSDKKCHLWTAMDLGFFVVMGVIGGLLGATFNCLNKRLAKYRMRNVHPKPKLVRVLESLLVSLVTTVVVFVASMVLGECRQMSSSSQIGNDSFQLQVTEDVNSSIKTFFCPNDTYNDMATLFFNPQESAILQLFHQDGTFSPVTLALFFVLYFLLACWTYGISVPSGLFVPSLLCGAAFGRLVANVLKSYIGLGHIYSGTFALIGAAAFLGGVVRMTISLTVILIESTNEITYGLPIMVTLMVAKWTGDFFNKGIYDIHVGLRGVPLLEWETEVEMDKLRASDIMEPNLTYVYPHTRIQSLVSILRTTVHHAFPVVTENRGNEKEFMKGNQLISNNIKFKKSSILTRAGEQRKRSQSMKSYPSSELRNMCDEHIASEEPAEKEDLLQQMLERRYTPYPNLYPDQSPSEDWTMEERFRPLTFHGLILRSQLVTLLVRGVCYSESQSSASQPRLSYAEMAEDYPRYPDIHDLDLTLLNPRMIVDVTPYMNPSPFTVSPNTHVSQVFNLFRTMGLRHLPVVNAVGEIVGIITRHNLTYEFLQARLRQHYQTI | no change
human ClC-6 (hClC-6a): NAA-hClC-6: N422A/N432A (protein) parent chain: MAGCRGSLCCCCRWCCCCGERETRTPEELTILGETQEEEDEILPRKDYESLDYDRCINDPYLEVLETMDNKKGRRYEAVKWMVVFAIGVCTGLVGLFVDFFVRLFTQLKFGVVQTSVEECSQKGCLALSLLELLGFNLTFVFLASLLVLIEPVAAGSGIPEVKCYLNGVKVPGIVRLRTLLCKVLGVLFSVAGGLFVEKEGPMIHSGSVVGAGLPQFQSISLRKIQFNFPYFRSDRDKRDFVSAGAAAGVAAAFGAPIGGTLFSLEEGSSFWNQGLTWKVLFCSMSATFTLNFFRSGIQFGSWGSFQLPGLLNFGEFKCSDSDKKCHLWTAMDLGFFVVMGVIGGLLGATFNCLNKRLAKYRMRNVHPKPKLVRVLESLLVSLVTTVVVFVASMVLGECRQMSSSSQIGNDSFQLQVTEDVNSSIKTFFCPNDTYNDMATLFFNPQESAILQLFHQDGTFSPVTLALFFVLYFLLACWTYGISVPSGLFVPSLLCGAAFGRLVANVLKSYIGLGHIYSGTFALIGAAAFLGGVVRMTISLTVILIESTNEITYGLPIMVTLMVAKWTGDFFNKGIYDIHVGLRGVPLLEWETEVEMDKLRASDIMEPNLTYVYPHTRIQSLVSILRTTVHHAFPVVTENRGNEKEFMKGNQLISNNIKFKKSSILTRAGEQRKRSQSMKSYPSSELRNMCDEHIASEEPAEKEDLLQQMLERRYTPYPNLYPDQSPSEDWTMEERFRPLTFHGLILRSQLVTLLVRGVCYSESQSSASQPRLSYAEMAEDYPRYPDIHDLDLTLLNPRMIVDVTPYMNPSPFTVSPNTHVSQVFNLFRTMGLRHLPVVNAVGEIVGIITRHNLTYEFLQARLRQHYQTI | no change
human ClC-6 (hClC-6a): ANA-hClC-6: N410A/N432A (protein) parent chain: MAGCRGSLCCCCRWCCCCGERETRTPEELTILGETQEEEDEILPRKDYESLDYDRCINDPYLEVLETMDNKKGRRYEAVKWMVVFAIGVCTGLVGLFVDFFVRLFTQLKFGVVQTSVEECSQKGCLALSLLELLGFNLTFVFLASLLVLIEPVAAGSGIPEVKCYLNGVKVPGIVRLRTLLCKVLGVLFSVAGGLFVEKEGPMIHSGSVVGAGLPQFQSISLRKIQFNFPYFRSDRDKRDFVSAGAAAGVAAAFGAPIGGTLFSLEEGSSFWNQGLTWKVLFCSMSATFTLNFFRSGIQFGSWGSFQLPGLLNFGEFKCSDSDKKCHLWTAMDLGFFVVMGVIGGLLGATFNCLNKRLAKYRMRNVHPKPKLVRVLESLLVSLVTTVVVFVASMVLGECRQMSSSSQIGNDSFQLQVTEDVNSSIKTFFCPNDTYNDMATLFFNPQESAILQLFHQDGTFSPVTLALFFVLYFLLACWTYGISVPSGLFVPSLLCGAAFGRLVANVLKSYIGLGHIYSGTFALIGAAAFLGGVVRMTISLTVILIESTNEITYGLPIMVTLMVAKWTGDFFNKGIYDIHVGLRGVPLLEWETEVEMDKLRASDIMEPNLTYVYPHTRIQSLVSILRTTVHHAFPVVTENRGNEKEFMKGNQLISNNIKFKKSSILTRAGEQRKRSQSMKSYPSSELRNMCDEHIASEEPAEKEDLLQQMLERRYTPYPNLYPDQSPSEDWTMEERFRPLTFHGLILRSQLVTLLVRGVCYSESQSSASQPRLSYAEMAEDYPRYPDIHDLDLTLLNPRMIVDVTPYMNPSPFTVSPNTHVSQVFNLFRTMGLRHLPVVNAVGEIVGIITRHNLTYEFLQARLRQHYQTI | no change
human ClC-6 (hClC-6a): ANN-hClC-6: N410A (protein) parent chain: MAGCRGSLCCCCRWCCCCGERETRTPEELTILGETQEEEDEILPRKDYESLDYDRCINDPYLEVLETMDNKKGRRYEAVKWMVVFAIGVCTGLVGLFVDFFVRLFTQLKFGVVQTSVEECSQKGCLALSLLELLGFNLTFVFLASLLVLIEPVAAGSGIPEVKCYLNGVKVPGIVRLRTLLCKVLGVLFSVAGGLFVEKEGPMIHSGSVVGAGLPQFQSISLRKIQFNFPYFRSDRDKRDFVSAGAAAGVAAAFGAPIGGTLFSLEEGSSFWNQGLTWKVLFCSMSATFTLNFFRSGIQFGSWGSFQLPGLLNFGEFKCSDSDKKCHLWTAMDLGFFVVMGVIGGLLGATFNCLNKRLAKYRMRNVHPKPKLVRVLESLLVSLVTTVVVFVASMVLGECRQMSSSSQIGNDSFQLQVTEDVNSSIKTFFCPNDTYNDMATLFFNPQESAILQLFHQDGTFSPVTLALFFVLYFLLACWTYGISVPSGLFVPSLLCGAAFGRLVANVLKSYIGLGHIYSGTFALIGAAAFLGGVVRMTISLTVILIESTNEITYGLPIMVTLMVAKWTGDFFNKGIYDIHVGLRGVPLLEWETEVEMDKLRASDIMEPNLTYVYPHTRIQSLVSILRTTVHHAFPVVTENRGNEKEFMKGNQLISNNIKFKKSSILTRAGEQRKRSQSMKSYPSSELRNMCDEHIASEEPAEKEDLLQQMLERRYTPYPNLYPDQSPSEDWTMEERFRPLTFHGLILRSQLVTLLVRGVCYSESQSSASQPRLSYAEMAEDYPRYPDIHDLDLTLLNPRMIVDVTPYMNPSPFTVSPNTHVSQVFNLFRTMGLRHLPVVNAVGEIVGIITRHNLTYEFLQARLRQHYQTI | no change
human ClC-6 (hClC-6a): AAN-hClC-6: N410A/N422A (protein) parent chain: MAGCRGSLCCCCRWCCCCGERETRTPEELTILGETQEEEDEILPRKDYESLDYDRCINDPYLEVLETMDNKKGRRYEAVKWMVVFAIGVCTGLVGLFVDFFVRLFTQLKFGVVQTSVEECSQKGCLALSLLELLGFNLTFVFLASLLVLIEPVAAGSGIPEVKCYLNGVKVPGIVRLRTLLCKVLGVLFSVAGGLFVEKEGPMIHSGSVVGAGLPQFQSISLRKIQFNFPYFRSDRDKRDFVSAGAAAGVAAAFGAPIGGTLFSLEEGSSFWNQGLTWKVLFCSMSATFTLNFFRSGIQFGSWGSFQLPGLLNFGEFKCSDSDKKCHLWTAMDLGFFVVMGVIGGLLGATFNCLNKRLAKYRMRNVHPKPKLVRVLESLLVSLVTTVVVFVASMVLGECRQMSSSSQIGNDSFQLQVTEDVNSSIKTFFCPNDTYNDMATLFFNPQESAILQLFHQDGTFSPVTLALFFVLYFLLACWTYGISVPSGLFVPSLLCGAAFGRLVANVLKSYIGLGHIYSGTFALIGAAAFLGGVVRMTISLTVILIESTNEITYGLPIMVTLMVAKWTGDFFNKGIYDIHVGLRGVPLLEWETEVEMDKLRASDIMEPNLTYVYPHTRIQSLVSILRTTVHHAFPVVTENRGNEKEFMKGNQLISNNIKFKKSSILTRAGEQRKRSQSMKSYPSSELRNMCDEHIASEEPAEKEDLLQQMLERRYTPYPNLYPDQSPSEDWTMEERFRPLTFHGLILRSQLVTLLVRGVCYSESQSSASQPRLSYAEMAEDYPRYPDIHDLDLTLLNPRMIVDVTPYMNPSPFTVSPNTHVSQVFNLFRTMGLRHLPVVNAVGEIVGIITRHNLTYEFLQARLRQHYQTI | no change
human ClC-6 (hClC-6a): NAN-hClC-6: N422A (protein) parent chain: MAGCRGSLCCCCRWCCCCGERETRTPEELTILGETQEEEDEILPRKDYESLDYDRCINDPYLEVLETMDNKKGRRYEAVKWMVVFAIGVCTGLVGLFVDFFVRLFTQLKFGVVQTSVEECSQKGCLALSLLELLGFNLTFVFLASLLVLIEPVAAGSGIPEVKCYLNGVKVPGIVRLRTLLCKVLGVLFSVAGGLFVEKEGPMIHSGSVVGAGLPQFQSISLRKIQFNFPYFRSDRDKRDFVSAGAAAGVAAAFGAPIGGTLFSLEEGSSFWNQGLTWKVLFCSMSATFTLNFFRSGIQFGSWGSFQLPGLLNFGEFKCSDSDKKCHLWTAMDLGFFVVMGVIGGLLGATFNCLNKRLAKYRMRNVHPKPKLVRVLESLLVSLVTTVVVFVASMVLGECRQMSSSSQIGNDSFQLQVTEDVNSSIKTFFCPNDTYNDMATLFFNPQESAILQLFHQDGTFSPVTLALFFVLYFLLACWTYGISVPSGLFVPSLLCGAAFGRLVANVLKSYIGLGHIYSGTFALIGAAAFLGGVVRMTISLTVILIESTNEITYGLPIMVTLMVAKWTGDFFNKGIYDIHVGLRGVPLLEWETEVEMDKLRASDIMEPNLTYVYPHTRIQSLVSILRTTVHHAFPVVTENRGNEKEFMKGNQLISNNIKFKKSSILTRAGEQRKRSQSMKSYPSSELRNMCDEHIASEEPAEKEDLLQQMLERRYTPYPNLYPDQSPSEDWTMEERFRPLTFHGLILRSQLVTLLVRGVCYSESQSSASQPRLSYAEMAEDYPRYPDIHDLDLTLLNPRMIVDVTPYMNPSPFTVSPNTHVSQVFNLFRTMGLRHLPVVNAVGEIVGIITRHNLTYEFLQARLRQHYQTI | no change
human ClC-6 (hClC-6a): NNA-hClC-6: N432A (protein) parent chain: MAGCRGSLCCCCRWCCCCGERETRTPEELTILGETQEEEDEILPRKDYESLDYDRCINDPYLEVLETMDNKKGRRYEAVKWMVVFAIGVCTGLVGLFVDFFVRLFTQLKFGVVQTSVEECSQKGCLALSLLELLGFNLTFVFLASLLVLIEPVAAGSGIPEVKCYLNGVKVPGIVRLRTLLCKVLGVLFSVAGGLFVEKEGPMIHSGSVVGAGLPQFQSISLRKIQFNFPYFRSDRDKRDFVSAGAAAGVAAAFGAPIGGTLFSLEEGSSFWNQGLTWKVLFCSMSATFTLNFFRSGIQFGSWGSFQLPGLLNFGEFKCSDSDKKCHLWTAMDLGFFVVMGVIGGLLGATFNCLNKRLAKYRMRNVHPKPKLVRVLESLLVSLVTTVVVFVASMVLGECRQMSSSSQIGNDSFQLQVTEDVNSSIKTFFCPNDTYNDMATLFFNPQESAILQLFHQDGTFSPVTLALFFVLYFLLACWTYGISVPSGLFVPSLLCGAAFGRLVANVLKSYIGLGHIYSGTFALIGAAAFLGGVVRMTISLTVILIESTNEITYGLPIMVTLMVAKWTGDFFNKGIYDIHVGLRGVPLLEWETEVEMDKLRASDIMEPNLTYVYPHTRIQSLVSILRTTVHHAFPVVTENRGNEKEFMKGNQLISNNIKFKKSSILTRAGEQRKRSQSMKSYPSSELRNMCDEHIASEEPAEKEDLLQQMLERRYTPYPNLYPDQSPSEDWTMEERFRPLTFHGLILRSQLVTLLVRGVCYSESQSSASQPRLSYAEMAEDYPRYPDIHDLDLTLLNPRMIVDVTPYMNPSPFTVSPNTHVSQVFNLFRTMGLRHLPVVNAVGEIVGIITRHNLTYEFLQARLRQHYQTI | no change
